Data published in the domain aggregation screens of Martell et al. (2025).

Experiment: soluble fraction after stress (log2 fold change); higher = more stays soluble; pooled small domains, quantitative proteomics
Details: stress: pH 4
Summary of the method: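 Pooled custom libraries of small protein domains were subjected to pH 4 and measured by high-throughput quantitative proteomics. The log2 fold change in soluble amount per domain is reported, higher values meaning more remained soluble. This is used as a measure of aggregation propensity.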

Sequence	soluble fraction (log2)
HMHPEETVNLILDAAFRLFLEKGYEHTSIQDIIGQLGGLSKGAIYHHFNSKEDILIAVTDRMTA	-1.67
HMHPEQTLEKIVDISAELFAKKGYEQTSIQDILDATGLSKGGLYHHFKSKEEILEAVMQKRVQY	-0.647
HMHPFELNTVTEGQLKRLPFLSDLQIRELLEYRSRYGKMLTLYELKNVEAFDLETISLLVPFIYISEI	-1.44
HMHPKTPDELLALMSEEQRGQIEQLAKLVLMAVSYSGASYYDAVTTMYPRMSEERRRIITHVLNTASP	-0.825
HMHPLFRVVLAGEPNGVGLDDWLTRHEAELINGPSAIGVLTVKIAMGRRSFETVLDEIRADGETIFVEPV	-2.02
HMHPTDMKLTARLEEGAQFVRTQQLSKAIEIFTEVIKLDQNWAEAWNKRATVFYMMGKFKQSQEDIDKVLA	-0.12
HMHPTEKNLTSLLADGSFYMNQNKLETAYDTFTKTIELDPSWAEAWNKRATVLYLMGKYELSQADIDQV	-0.176
HMHPVTGRIGTVTAANGLNLRADSSEYANVVATLGYGVDVTVTGERINGFYPVRVGTLSGYVSADYVSFNS	-0.299
HMHQVHKIDGVKYYLHLVEKGNTLYGISKQYNVSVERIEKANTEALSDGLKENQTLLIPVTSDNKKT	0.0091
HMHREITGSLAERNGRYTAILNLYDEDGKRRQKSIALGIPVKGNKRKAQAQLEELKRAYSLGLPQ	0.051
HMHRGTPASIIAAAKQYLTGGQTVELYEREGGPWTFRLRTYLSETPYPEKVRASVEALKPAGVVFLYELQS	-0.112
HMHRIKRRNDTLVSALDSIAGIGAKRKKALLQHFGSVRAIKAVSAEEIAKVEGISPTLANQIFEAL	-0.0221
HMHRTMFYLDVDLAEGQSVKMAVHEDDDPGELAARFADEHQLKSRAMEKLRSVIEENVRLHRRNQ	-0.306
HMHRTRNAERTRAAVLKAAAEVLAERGTGASLARIAEVAGVSKSGLLHHFANREQLIVALLED	-0.462
HMHSIFPVIRSTSFPTKSNDGELFITSDHTAETRIYYALDLGNTYRLIDQKVMNEINLTESLVKETARF	-1.63
HMHSILDDIEGIGPARRKALMRHYMNLDAIKSATVEELAAVPSMNEKSAKAVHNFFHQQKKD	0.22
HMHSKQRDAIFENLRSRKDHPTAEEIYLSLKPAMPAISLATVYRNLAQLENEGLILRLGSGGSARYDGDT	0.164
HMHSLGDQVFETIKELIVNNTYQPGELLQIDKLAAEFGVSTTPVREALLRLEGLGLVDIERNKAAVVT	-0.352
HMHSPLLDRYLAEVGWRLRHLSGAQREDILAGLREHIADLESAGVAPEEIVARLGSPESVADAAAGEF	0.0489
HMHSPTFYVHVVGQVKVPGVYELEVGSRLFDAVIAAGGFKDDADQASVNLARPLSDGEQIVVLKLGDQ	-0.732
HMHTADDFKQLAKQTSNGQLRTRYLALYLFKNGETRTQIATYLGVARGSVNTWVSNYLAHGLEGLQSKP	0.0388
HMHTSEDLEKLLTRYFQSHESINRQQFEQLSGFTRTTASRRLKALVEAGKLKNIGLHHFPVYKPTEGNF	0.134
HMHVGVWIMNEKGEILLEQRASNKKVDPNKWARIGGHVDAGEKPIQAIQREILEEIGVKIPLENFIVLET	-0.592
HMHVLAVDEALHKLTELNELHAKIVEMRFFSGMTVQEVADELGVSKRKIESEWTMIKAWLRKELN	-0.916
HMHVSLSGKIHSELRKLILNGELKAGERLPSEPDLAHELGVSRNSLREAIGLLQREGLLLKKHGIGTFVTD	0.183

Sequence	soluble fraction (log2)
HMHVYQSLVTDRVVPGGGYRTTEAILSTEAWRNTLLEQAKRELIGVRNKYASLTELAKVWTAIDTVT	-0.249
HMHYALTVDFPAALEARIDPAHRAALRGVLAHDPRPSYQSDPERLYGVAFAGKNVKFTVEDGVLTVRKIEE	-0.267
HMHYKLIIFENHTKSTSLDITPEQARQILGVTDYTPEQYEILAEITNRPASYFMDDLVDYYVD	-1.53
HMHYNMNYLENLTKTELFDLAKNKFGLTYAEMERHLSIPEGGARYAIKAEHSKYGSDIKKYLVEFLLE	-0.134
HMIADPAKPDWTTILAPVTTGTTVTHKTFGQGTVTKLDKTKKYLTVSFAAGQKNFVFPNAFIDGFLK	-0.105
HMIADSSSIHQDAKQQLHSYLRTNIQPLMRAGKQLDLKDILHHVTIRKPKLVQQLGMKQVQHMVQVLLD	0.184
HMIAGHLQEKKGFFYIVLSYPDAAGKRKTKWFPTKLSVKGNKKKAEVMLMDARKTFVPPETPL	0.207
HMIAITVGSKVRVKAGATFSDGTKPFTEVYNTVYDVQLLSRNGKEARIGIGEQWTGWMYISDLYPADQ	0.00391
HMIAPQISSGKVNTKELNVRSGPATTFGIVKKLPLNAMVGIFEEKNGWFRIATGQWVSKTYVDL	0.187
HMIAVLEEGSRFRAINDISGKPFGPEMIIKNGQVIAAGKKILTKPKKLIGKKEGTKFNISGKEYVIKDI	-0.834
HMIAWNFDTMKESLSEMERVDYQEFIKAFLSLELSISDRTILNQVYQDYMDEDDLSLISDELRV	-1.4
HMIDDNTIIQIGDSYSKSIRLLGEPIELKNRSLNQKSYFMAVYDFKGRRYRLFFENDVLFDILRD	-0.486
HMIDELLDPTHRIMVRHPRVDYVSPGFLIGPDKDVILWGFTGGIIARLFDFLGWTRPWDQSHVQDLPPYML	-0.242
HMIDENILSEEIKHYIETNNYAKDDKLPSERSLASLFNVSRALVRKSLISLVDVNYLYVKDKSGYYING	-0.52
HMIDEPENLIQEDKMVNIIYDLALLEGVKTFNSSNFQSVKSNDFVYKKYKIDSLQFAKSTQFYASDINR	-0.404
HMIDFDEIEILSSSKIEKIENSEYLKSSIFEKDSNQYIYRLSFENRDQLKNFKKEIEDIDQIKKIDVTY	-0.665
HMIDHKVIRSFRQKRNMTLQELAQKANLSVSYLSEIELGKKQPSLETLDKLSKALNISLEGL	0.131
HMIDHLPPQRAAVLAFLQRELVAGRSPSLAEIALAFGFASRNAAQKHVQALVADGLLEQATGRSRGLRLPG	-0.235
HMIDIGSKIKKLRSKKSIEIGKKYTGAMLANELGISRSYLGDIESGRTVPNEIILGKIADIFDVDIYELIG	-0.405
HMIDLPEAFIQQLKEAVDVGDVTGLRELLGQLRRRYPQQSALSDEAERLLREFDFERLAQLFEGLD	-1.54
HMIDNFFTIRFNYSKINEVIRLLKEFNGEIFNKNYDKNEYIIEFSIPKKDAALLISKLKNITGLTIEQ	-0.538
HMIDQIAEQLQQRLAVDTAFATIQRDYPDVIANKDIELLTAIKVNQKIAEGASRASAMLESAKEVYETL	-0.329
HMIDRPLTLVEDYERFAGELAKITLRFMLDGRKRFNGRLAGFDEDGKIVLETSFGRFAFSFDEIDSARI	-2.08
HMIDSVFASYRQVALDDELWDKVRNGAVLPKVELFEVMDGPVLFTYQSKIVAMYEPHPTKAGYIKPRKMFL	-1.52
HMIDTTKILPGQEFKNMQELSVALTGQKMPAGKGYVLQQEKFKLYFSWKKITGTHKLIIDEIYEEPKT	-0.573

Sequence	soluble fraction (log2)
HMIDYIKYTVDGKTYELINNWDGTWSRELEAPLVAGRYDLLLEISQNGLVTYIDSSDPRYEFYLDVI	-2.3
HMIEESTVPDLKGKSQEDAIKLLEDANLKYQIVEEESKKIEAGYVISQETDANKKVNAGDTVIIHVST	-0.0907
HMIEFYTMQDMFYFKLTGDNTSRERREALGKILGIGYGNATQMVSRLNNYGISKEEFSKAIEEIEKQLEA	-1.36
HMIEIKNLSFSYGKKKQSVFNDFSLTLDKGSVYGLLGKNGTGKSTLLYLMTGLLRPQAGQVLYKGVDVS	0.159
HMIEKVNDYVVRFANVNGTGSASANNLFALAIYRMGVPVTPKNIFPSNIQGLPTWFEVRVSGSGYLARRG	0.129
HMIELDRTNLLGVFGPKSRPYALLMLSNGEMIKISIGDQFFGWRVYGIDEKSIQVQNGTKQEILRIP	-1.19
HMIENGILELKGKTGVAQTVLRPSGKVLIDDEIYDAVALTGYIEKADKVLVTKVEATQLYVEK	-0.289
HMIERLVVSPAAGVFTKKMSVENNTRIDVGHVLGHVGETEVRSPFAGILQNYIAVDGERLTAHQPIAWLRS	0.15
HMIERVLRTEEHIEAFAGEEVEAKLFAPIDGKKTLRGILGGIEDGRVILTVGDTEYRIEHAKISRLTTVFD	-0.712
HMIESVMVGIKELLGDTIDQKYEKYIRLGGIPSDEVDEFNSVFSAYEKVNGNHNGKKKYDYVMNNLPIIPV	-1.54
HMIETIQVPRAFNDWHEQADKTKSVFEVYAEIEASENEKLIAWVRNNQNEFAKIWLGALIPELE	-1.24
HMIGHIGSAVMLNAKLRPRLPLLHVLALTQSLGERLSAAEAQPEVYRWSDPGQSRVIAEFEGGRLTRWRLE	-0.968
HMIGVIVDEVDPDSSLKSGDIITEVNREVILNIDDFVGLVEQIQKTGRSSLLLKILRDKKSLWVTIQFV	0.22
HMIHQIPVNVQKIRQIIGINLNENDYLNYLAKLGFVIDEGLIIVPSFRSDVKTQNDLAEEIARV	-0.236
HMIINFDAIKLTTELNKYKRHKAIPNTFFDGTYTILDVRELYNDLTPKAQKIADELIEHYNVDVK	-1.69
HMIINLGELLKMLEVNKYQDAMDALDSLIEEGGSLEKIESLHEIRQHTHAMNFREAERLLSILIESEGA	-1.41
HMIISPKKLEYRQRIINALGDRKMSLNELSKAMGYKGITTKLSFTVDDMIKSGVIEKVMVGAYAKLHIP	0.22
HMIIVMKRNATETQIDHVVRWVESIGYRAHRSNGTEQTVVKAVGGERGGEELKYLAALSGVEKVVPIR	0.141
HMIKDSKAAYKILGVDENATNEEIKKAYRQLVINHHPDKVSHLGEDIQRAANEKLKQINAAYDEIKKQRGF	0.171
HMIKEGDLVFIWNPKKGDSFLIKVQPGQSQGTHFGQIKHSEIMEHNYGEGIRTPKGQVYYLLRPTLGEFTR	-0.38
HMIKEVGYEKFMQMTEEEDIGRVEIDQEENQITFTDKDETAIYKTGMVDDPDLTERLYDAGAEFS	-0.591
HMIKIDESTLSEDELKIFEILKIEDKNIENIAIESKILPGKLLATLMNMEMKKIVVQYPGKVFGLNRKLK	0.0566
HMIKKAILPVAGLGTRFLPASKSIPKEMVTVVDRPAIEYVVREAVEAGIEQIILVTHSSKASIENYFDR	-0.217
HMIKKLDIEPIIKSVVDDFNNIYKLKRGITISYLNDGKNKYFINGIENRIEQIIANLLDNSISFSEDNKDV	0.122
HMIKLSTNENTALRLVMERGLVTESELKGLFDNPVAVMESLISKMIETNTHWIHSERSENGEWVYAWQ	-1.46
